Laboratory results as given in patent US20160228506A1, “Compositions and Formulations for Prevention and Reduction of Tumorigenesis, Cancer Cell Proliferation and Invasion, and Methods of Production and Use Thereof in Cancer Treatment” (PRONUTRIA, INC., priority 2013, published 2016).

B1: SEQID-00612: protein of the 168 nutritive polypeptide library (protein, listed as Oryza sativa)
chain: MICLRAAFPLTSSPLRRLALKPSSSRAAAAAMSSAIAAPVEHIVLIKVRPEAASSGAAAAMVSSLQALSTAVPGLSYIHVGPVLRLRSPAAEALGPTHVLHSRYATKPDLAAYAAHPAHVAAVQGHVLPNALDSTAIDWVNAALVPSPVNPGSAVRLSLAKLKEGVEAHQLAEKLAAATAAAGEAKGAKVSFGENFSPARAKGYQFGMVAVFDSVEGLDAVDGDGKVEAAKAIVRPLLDDVLELEFVVGPAAAEAPAPANL
modifications: source: /note="subsp. japonica"
notes: protein of the 168 nutritive polypeptide library
B2: SEQID-00602: protein of the 168 nutritive polypeptide library (protein, listed as Lactobacillus acidophilus)
chain: MKSYMKKIAAVVAVAGVALSTAACSNGGSNSTVASYKGGKITQQQYYDEMKKSQAGKSTLANMIINRALEQQYGKYVSSKKVDKQYNNYKKQYGSQFSAVLQQNGMTASSFKENLKTNLLSEQALKHIKKISKKQEQQAWKSYQPKVTVQHILVAKKSTAQSIIKQLKDGKSFKSLAKKYSLDTATKNKAGKLPAFDSTDNTLDSSFKTAAFKLKTGEVTSTPVKSQSGYHVIKMISHPAKGKFADHKKAIDDEIYASMAQDQATMKDVISTVLKRADVSIKDSDLKDVLASYVSTTSATK
modifications: source: /note="strain 30SC"
notes: as for B1
B3: SEQID-00599: protein of the 168 nutritive polypeptide library (protein, listed as Agaricus bisporus)
chain: MSESLRYLGSLEGHKGWVTAIATSSENPDMILTASRDKTIIVWQLTREDDSYGYPKRILHGHNHFVSDVVISSDGQFALSSSWDHTLRLWDLNTGVTTRRFVGHSSDVLSVSFSADNRQIVSGSRDRTIKLWNTLGECKFDIKEDGHSEWVSCVRFSPNVANPVIVSAGWDKVVKVWELSKFKLKTNHYGHTGYINTVSVSPDGSLAASGGKDGITMLWDLNEGKHLYSLEAGDVVNALVFSPNRYWLCAATASCVKIFDLESKSIVDELKPTYTDVGEDARQPECVSIAWSADGQTLFTGYTDNAVRVWIVTS
modifications: source: /note="var. bisporus"; source: /note="strain H97 / ATCC MYA-4626 / FGSC 10389"
notes: as for B1
B4: SEQID-00624: protein of the 168 nutritive polypeptide library (protein)
chain: MSEKTDQILEQLKSLSLLEASELVKQIEEAFGVDASASAGGGMMMMAAPGMAAPGAEAAAEEEKTEFDVILTEFPADKKIAVLKVVRSITGLGLKEAKDLVESAPKAIKEATTKEDAESIKKQLEESGAKVEVK
modifications: Arthrospira platensis NIES-39
notes: as for B1
B5: SEQID-00613: protein of the 168 nutritive polypeptide library (protein)
chain: MGLFDRIGRVVRANLNDLVNKAEDPEKILEQAVIEMQEDLIQLRQAVAQTIAQQKRSQQQYNQAQSQANQWQSRAQLALQKGDENLAREALQRKKGYLETANTLEISLRQQTEQVETLKRNLVSLESKISEAKTKKNMLKARAQAAKANEQLNNVLGGINTSSATSVFERMEEKVMIQEAKSQAAAELMGSGLEEQFRALEEGSDVDDELAAMKAQLAGAPANQPQLSPSAPTDSSTSNPEIDNELEELRRELNK
modifications: Arthrospira platensis C1
notes: as for B1
B6: SEQID-00620: protein of the 168 nutritive polypeptide library (protein, listed as Saccharomyces cerevisiae)
chain: MSDVEEVVEVQEETVVEQTAEVTIEDALKVVLRTALVHDGLARGLRESTKALTRGEALLVVLVSSVTEANIIKLVEGLANDPENKVPLIKVADAKQLGEWAGLGKIDREGNARKVVGASVVVVKNWGAETDELSMIMEHFSQQ
modifications: source: /note="strain ATCC 204508 / S288c"
notes: as for B1
B7: SEQID-00623: protein of the 168 nutritive polypeptide library (protein, listed as Solanum lycopersicum)
chain: MKPAEKKPAEKTPVAEKAPAEKKPKAGKKLPKDAAAGDKKKKRSKKAVETYKIYIFKVLKQVHPDIGISSKAMGIMNSFINDIFEKLAQEASRLARYNKKPTITSREIQTAVRLVLPGELAKHAVSEGTKAVTKFTSS
B8: SEQID-00617: protein of the 168 nutritive polypeptide library (protein)
chain: MNKEQLVQETSIKAGVTKKQADAIISAICECIMDAVADGEKVTLVGFGSFEARHRKAREGRNPSTGQPMTIPATTVPAFSAGKAFKERVANESNENVA
modifications: Arthrospira platensis NIES-39
notes: as for B1
B9: SEQID-00592: protein of the 168 nutritive polypeptide library (protein)
chain: MAQTVVLKVGMSCEGCVGAVKRVLGKMEGVESYDVDIMEQKVTVKGNVTPDAVLQTVSKTGKKTSFWEAEAVTSESATPAGATA
modifications: Zea mays
notes: as for B1
B10: SEQID-00625: protein of the 168 nutritive polypeptide library (protein)
chain: MPFKRYVEIGRVAQINYGKEYGRLVVIVDVIDQNRALVDAPDMVRSQVNFKRLSLTDIKIDIKRVPKKKDLVKAMEDADVKTKWEKSSWGRKLIVRKRRASLNDFDRFKIMLAKIKKAAVVRQELAKLRKSA
modifications: Glycine max
notes: as for B1
B11: SEQID-00609: protein of the 168 nutritive polypeptide library (protein, listed as Saccharomyces cerevisiae)
chain: MSNPFDLLGNDVEDADVVVLPPKEIVKSNTSSKKADVPPPSADPSKARKNRPRPSGNEGAIRDKTAGRRNNRSKDVTDSATTKKSNTRRATDRHSRTGKTDTKKKVNQGWGDDKKELSAEKEAQADAAAEIAEDAAEAEDAGKPKTAQLSLQDYLNQQANNQFNKVPEAKKVELDAERIETAEKEAYVPATKVKNVKSKQLKTKEYLEFDATFVESNTRKNFGDRNNNSRNNFNNRRGGRGARKGNNTANATNSANTVQKNRNIDVSNLPSLA
modifications: source: /note="strain ATCC 204508 / S288c"
notes: as for B1
B12: SEQID-00619: protein of the 168 nutritive polypeptide library (protein, listed as Linum usitatissimum)
chain: MAPKAAEKKPAEKKPAEEKKAEKAPAEKKPRAEKKLPKEGGAAAADKKKKRNKKNVETYKIYIFKVLKQVHPDIGISSKAMGIMNSFINDIFEKLAAESSRLARYNKKPTITSREIQTAVRLVLPGELAKHAVSEGTKAVTKFTSS
B13: SEQID-00607: protein of the 168 nutritive polypeptide library (protein)
chain: MALQDDWQQSHLERRQVLAESQKQIWATIGLWQRERYSQAITQKQDRQAFVSQLKQENQAFLADAHNNHRQQAEQLAEDLKEFVRSLQKETATFLEESAQSRAEKAEELAQELRDFRAELRDTVAQWQQQWQQQDQERAAGRRKLAQQVQGDLQEFNIIRTIMAEKLLQQTQEAKAERLAGIQSMFEDMGKFRMQLQEYRREREKSVWGGERVKSTPATPQKAKASQTLVPQTKPKAVKSAPSTTTAAQSTTPTAVVVAEPTKPAVPPNQPKPTTVVPHPPNPG
modifications: Arthrospira platensis C1
notes: as for B1
B14: SEQID-00626: protein of the 168 nutritive polypeptide library (protein, listed as Lactobacillus acidophilus)
chain: MVMTDPIADYLTRIRNANMAKHDSVEIPASNIKKSISEILKREGFIRDYEVADDNKQGVIKVFLKYGPNGERVISGLKRISKPGLRNYVSAEDLPKVLNGLGIAIVSTSAGVITDKEARQKNVGGEVIAYIW
modifications: source: /note="strain 30SC"
notes: as for B1
B15: SEQID-00618: protein of the 168 nutritive polypeptide library (protein)
chain: MDAGGKIKKGAGGRKGGGPKKKPVSRSVKAGLQFPVGRIGRYLKKGRYAQRVGTGAPVYLAAVLEYLAAEVLELAGNAARDNKKNRIIPRHVLLAVRNDEELGKLLAGVTIAHGGVLPNINPVLLPKKTERASKEPKSPSKATKSPKKA
modifications: Glycine max
notes: as for B1

experiment: SGF digest of 168 nutritive polypeptide library, intact protein by LC-MS/MS; format: in vitro ADME; conditions: 168 nutritive polypeptide library SGF digest, LC-MS/MS spectral counts
Method: The in vitro intact half-life of multiple polypeptides in a complex mixture was determined using the simulated gastric in vitro digestion described above. Briefly, the 168 nutritive polypeptide library was generated as described herein by cloning, transforming, and expressing a gene library encoding 168 proteins as a single mixture. The recombinantly expressed proteins were purified from host cell proteins by IMAC purification as described herein.
The 168 Protein Library was treated with SGF as described above and the t=0 and t=10 min samples were analyzed for intact protein by LC-MS/MS. To begin, 10 μg of sample was loaded onto a 10% SDS-PAGE gel (Invitrogen) and run approximately 5 cm into the gel. The gel was excised into ten fractions from 100 kD to the dye front and the gel slices were processed by washing with 25 mM ammonium bicarbonate, followed by acetonitrile. Gel fractions were then reduced with 10 mM dithiothreitol at 60° C., followed by alkylation with 50 mM iodoacetamide at room temperature. Finally, the samples were digested with trypsin (Promega) at 37° C. for 4 h and the digestions were quenched with the addition of formic acid. The samples were then analyzed by nano LC/MS/MS using an EasynLC 1000 HPLC system interfaced to a ThermoFisher Q Exactive. Peptides were loaded on a trapping column and eluted over a 75 μm analytical column at 350 nL/min; both columns were packed with PepMap C18 3 μm resin (ThemoFisher). A 1 hour gradient was employed. The mass spectrometer was operated in data-dependent mode, with MS and MS/MS performed in the Orbitrap at 70,000 FWHM resolution and 17,500 FWHM resolution, respectively. The fifteen most abundant ions were selected for MS/MS. Data were searched against an appropriate database using Mascot to identify peptides. Mascot DAT files were parsed into the Scaffold software for validation, filtering and to create a nonredundant list per sample. Data were filtered at 1% protein and peptide false discovery rate (FDR) and requiring at least two unique peptides per protein. A full list of detected proteins and their spectral counts (SpC) was generated and reported as a function of each collected gel fraction. SpC are a count of the number of spectra identified for a given protein and are used as a measure of relative protein abundance (Liu, H. et al., Analytical Chemistry 2004, 76: 4193-4201). To calculate the percentage of intact protein remaining at the 10 min time point of the SGF digest the number of SpC representative of intact peptide in the t=10 min sample were divided by the number of SpC representative of intact peptide in the t=0 min sample. The number of SpC representative of intact peptide was defined as the sum of the SpC in the fraction with the highest number of SpC assigned to that protein in the t=0 min sample and the two flanking fractions.

B1 and B2 are the same in “% Intact Protein at 10 min” value: 0% for the first, 0% for the second.

B3 and B4 are the same in “% Intact Protein at 10 min” value: 0% for the first, 0% for the second.

B5 and B6 are the same in “% Intact Protein at 10 min” value: 0% for the first, 0% for the second.

First: B7
Second: B8
The “% Intact Protein at 10 min” value of the first is higher: 63.6% for the first, 43.9% for the second.

First: B9
Second: B10
The “% Intact Protein at 10 min” value of the first is higher: 24.3% for the first, 0% for the second.

Compared with B11, B12 is higher in “% Intact Protein at 10 min” value: 0% for the first, 68.5% for the second.

B13 and B14 are the same in “% Intact Protein at 10 min” value: 0% for the first, 0% for the second.

With B15 the “% Intact Protein at 10 min” value was 0%.
